Test results taken from patent US20190352660A1 (PLANT BIOSCIENCE, published 2019).
Changes are numbered by the printed parent chain.

Target: T1, GST-GUS (UniProt P05804 1-603, limits assumed)
T1 construct: Negative control bait; also called GST-tagged beta-glucuronidase; negative control GST-GUS; not shown: GST tag
Assay: in vitro GST pull-down on glutathione sepharose beads, immunoblot for GST and FLAG
Description: E. coli expressed GST-tagged bait proteins were incubated with E. coli expressed FLAG-tagged prey proteins before purification on glutathione sepharose beads and immunoblotting for GST and FLAG.
Following this growth phase, the cultures were centrifuged at 4500×g for 10 minutes, the supernatants were discarded and the pellets resuspended at 4° C. in 2.5 ml TGH Buffer (50 mM HEPES (pH7.5), 150 mM NaCl, 1% Triton-X-100, 10% Glycerol, 1 mM DTT, 1 complete EDTA-free protease inhibitor tablet (per 50 ml) (Roche 11873580001)). The bacterial suspension was then sonicated (on ice) for four bursts of ten seconds, separated by 20-second intervals, before being centrifuged at 12 000×g for 20 minutes to pellet any cellular debris. Cleared sonicates were then stored on ice while a 50% slurry of washed glutathione sepharose beads (GE Life Sciences 17-0756-01) was prepared according to the manufacturer's instructions. 20 μl of the 50% glutathione sepharose slurry was then combined with 2.5 ml of protein extract from bait protein (GST-tagged) expressing cells and 2.5 ml of protein extract from prey protein (HA-/FLAG-/HIS-tagged) expressing cells. […] After washing, proteins were eluted with 35 μl GST-elution buffer (50 mM TRIS-glycine (pH8.0), 10 mM reduced glutathione) over 30 minutes at 4° C. before being analysed by western blot analysis. […]

T1 sequence (P05804 whole entry): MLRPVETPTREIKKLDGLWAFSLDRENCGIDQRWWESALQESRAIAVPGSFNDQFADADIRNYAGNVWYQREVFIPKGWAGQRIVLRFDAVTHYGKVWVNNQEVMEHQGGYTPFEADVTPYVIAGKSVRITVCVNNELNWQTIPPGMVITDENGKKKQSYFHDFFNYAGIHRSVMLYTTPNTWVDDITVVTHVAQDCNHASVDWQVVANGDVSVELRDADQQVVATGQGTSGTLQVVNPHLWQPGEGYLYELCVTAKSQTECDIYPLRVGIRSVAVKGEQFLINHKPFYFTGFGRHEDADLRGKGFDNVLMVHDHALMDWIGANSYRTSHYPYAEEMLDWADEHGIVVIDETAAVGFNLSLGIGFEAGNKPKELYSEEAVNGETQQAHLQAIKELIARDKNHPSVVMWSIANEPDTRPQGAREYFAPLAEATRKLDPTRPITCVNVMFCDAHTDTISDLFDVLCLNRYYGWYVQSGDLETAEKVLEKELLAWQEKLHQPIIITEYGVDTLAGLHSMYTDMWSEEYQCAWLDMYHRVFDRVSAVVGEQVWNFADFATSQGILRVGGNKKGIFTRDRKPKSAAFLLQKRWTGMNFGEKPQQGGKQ

B1: FLAG-DA1 (other)
chain: MGWFNKIFKGSNQRLRVGNNKHNHNVYYDNYPTASHDDEPSAADTDADNDEPHHTQEPSTSEDNTSNDQENEDIDRAIALSLLEENQEQTSISGKYSMPVDEDEQLARALQESMVVGNSPRHKSGSTYDNGNAYGAGDLYGNGHMYGGGNVYANGDIYYPRPITFQMDFRICAGCNMEIGHGRFLNCLNSLWHPECFRCYGCSQPISEYEFSTSGNYPFHKACYRERYHPKCDVCSHFIPTNHAGLIEYRAHPFWVQKYCPSHEHDATPRCCSCERMEPRNTRYVELNDGRKLCLECLDSAVMDTMQCQPLYLQIQNFYEGLNMKVEQEVPLLLVERQALNEAREGEKNGHYHMPETRGLCLSEEQTVSTVRKRSKHGTGKWAGNITEPYKLTRQCEVTAILILFGLPRLLTGSILAHEMMHAWMRLKGFRTLSQDVEEGICQVMAHKWLDAELAAGSTNSNAASSSSSSQGLKKGPRSQYERKLGEFFKHQIESDASPVYGDGFRAGRLAVHKYGLRKTLEHIQMTGRFPV
notes: E. coli expressed prey protein; also called FLAG-tagged wild-type DA1; AtDA1; not shown: FLAG tag
  binding result: no binding

B2: FLAG-da1lim8 (other)
chain: B1 chain with C172G, C175G, C199G, C202G
notes: E. coli expressed prey protein; It is a DA1 variant with a mutated LIM domain; also called FLAG-tagged DA1lim8; not shown: FLAG tag
  binding result: no binding
